{"source": "paper PMC4747346", "about": "“Interaction of RECQ4 and MCM10 is important for efficient DNA replication origin firing in human cells” (Oncotarget, 2015)", "binders": {"B1": {"name": "GST-MCM10 (natural protein, human, UniProt Q7L590 1-875, looked up)", "chain": "MDEEEDNLSLLTALLEENESALDCNSEENNFLTRENGEPDAFDELFDADGDGESYTEEADDGETGETRDEKENLATLFGDMEDLTDEEEVPASQSTENRVLPAPAPRREKTNEELQEELRNLQEQMKALQEQLKVTTIKQTASPARLQKSPVEKSPRPPLKERRVQRIQESTCFSAELDVPALPRTKRVARTPKASPPDPKSSSSRMTSAPSQPLQTISRNKPSGITRGQIVGTPGSSGETTQPICVEAFSGLRLRRPRVSSTEMNKKMTGRKLIRLSQIKEKMAREKLEEIDWVTFGVILKKVTPQSVNSGKTFSIWKLNDLRDLTQCVSLFLFGEVHKALWKTEQGTVVGILNANPMKPKDGSEEVCLSIDHPQKVLIMGEALDLGTCKAKKKNGEPCTQTVNLRDCEYCQYHVQAQYKKLSAKRADLQSTFSGGRIPKKFARRGTSLKERLCQDGFYYGGVSSASYAASIAAAVAPKKKIQTTLSNLVVKGTNLIIQETRQKLGIPQKSLSCSEEFKELMDLPTCGARNLKQHLAKATASGIMGSPKPAIKSISASALLKQQKQRMLEMRRRKSEEIQKRFLQSSSEVESPAVPSSSRQPPAQPPRTGSEFPRLEGAPATMTPKLGRGVLEGDDVLFYDESPPPRPKLSALAEAKKLAAITKLRAKGQVLTKTNPNSIKKKQKDPQDILEVKERVEKNTMFSSQAEDELEPARKKRREQLAYLESEEFQKILKAKSKHTGILKEAEAEMQERYFEPLVKKEQMEEKMRNIREVKCRVVTCKTCAYTHFKLLETCVSEQHEYHWHDGVKRFFKCPCGNRSISLDRLPNKHCSNCGLYKWERDGMLKEKTGPKIGGETLLPRGEEHAKFLNSLK", "notes": "MCM10, human; construct pGEX-4T-1-MCM10, a gift from Dr. Yilun Liu; also called G-M10; pGEX-4T-1-MCM10; source: E. coli, purified on GSH beads (kept on the beads for pull-downs; eluted with reduced glutathione for the peptide array)"}}, "target": "T1, HIS-RECQ4 (full length, recombinant) (human, UniProt O94761 1-1208)", "T1 construct": "RECQ4; full length construct, a gift from Dr Yilun Liu; the construct itself is not described; also called H-R4; source: E. coli Rosetta pLysS, purified (HQ sepharose flow-through, PEI, HiTrap HP with imidazole, FLAG M2 beads)", "T1 sequence (looked up)": "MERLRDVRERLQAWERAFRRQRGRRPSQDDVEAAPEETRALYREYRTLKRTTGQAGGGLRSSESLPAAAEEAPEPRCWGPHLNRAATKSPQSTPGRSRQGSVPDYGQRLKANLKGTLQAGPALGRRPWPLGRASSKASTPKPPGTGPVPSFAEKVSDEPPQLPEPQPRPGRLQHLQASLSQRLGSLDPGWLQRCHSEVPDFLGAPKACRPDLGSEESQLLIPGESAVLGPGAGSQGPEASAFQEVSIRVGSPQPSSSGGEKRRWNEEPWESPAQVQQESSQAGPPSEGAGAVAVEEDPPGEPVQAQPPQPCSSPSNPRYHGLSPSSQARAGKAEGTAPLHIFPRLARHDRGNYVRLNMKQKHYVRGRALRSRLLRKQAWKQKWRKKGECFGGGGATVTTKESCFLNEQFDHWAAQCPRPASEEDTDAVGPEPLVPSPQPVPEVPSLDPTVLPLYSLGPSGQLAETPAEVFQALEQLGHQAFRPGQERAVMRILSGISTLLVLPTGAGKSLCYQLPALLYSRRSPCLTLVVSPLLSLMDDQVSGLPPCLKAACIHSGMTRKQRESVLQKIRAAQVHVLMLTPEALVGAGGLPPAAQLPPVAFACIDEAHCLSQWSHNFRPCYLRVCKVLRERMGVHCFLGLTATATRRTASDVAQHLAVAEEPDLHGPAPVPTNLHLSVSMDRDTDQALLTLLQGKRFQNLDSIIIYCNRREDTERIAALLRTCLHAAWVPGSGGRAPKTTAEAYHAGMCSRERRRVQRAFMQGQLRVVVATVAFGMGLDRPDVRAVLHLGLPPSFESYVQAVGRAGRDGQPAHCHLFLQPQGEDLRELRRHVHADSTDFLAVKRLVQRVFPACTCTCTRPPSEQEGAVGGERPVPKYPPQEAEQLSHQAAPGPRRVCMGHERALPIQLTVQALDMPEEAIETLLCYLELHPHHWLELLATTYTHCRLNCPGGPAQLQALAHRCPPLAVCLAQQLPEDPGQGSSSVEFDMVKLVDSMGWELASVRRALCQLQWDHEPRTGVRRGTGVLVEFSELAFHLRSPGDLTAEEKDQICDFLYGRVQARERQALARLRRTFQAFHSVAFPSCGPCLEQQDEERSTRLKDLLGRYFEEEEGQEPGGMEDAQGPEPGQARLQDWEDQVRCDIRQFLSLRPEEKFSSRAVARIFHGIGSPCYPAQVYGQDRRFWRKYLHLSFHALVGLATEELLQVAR", "test": "SPR; BIAcore T100, 25°C; GST-MCM10 amine-coupled to a CM3 chip (500 response units); RECQ4 as analyte at 1, 0.5, 0.25, 0.125, 0.06 and 0.03 μM; flow 30 and 60 μl/min; HBS buffer (10 mM HEPES pH 7.4, 150 mM NaCl, 0.5 mM TCEP, 0.05% Tween20); global fit to a two state model", "conditions": "both partners purified"}
{"binder": "B1", "values": [{"measurement": "Kd", "value": "170 ± 200", "unit": "nM"}]}
